# In PMC8844075, “Structural basis of neuropeptide Y signaling through Y1 receptor” (Nature Communications, 2022):
# T1: Y1R L26^NA/F28^NA mutant (printed L28^NA/F28^NA) (human, UniProt P25929 1-384, L26^N to A (the mutant's label is printed L28^NA; the same sentence names the …)
# T1 sequence (looked up): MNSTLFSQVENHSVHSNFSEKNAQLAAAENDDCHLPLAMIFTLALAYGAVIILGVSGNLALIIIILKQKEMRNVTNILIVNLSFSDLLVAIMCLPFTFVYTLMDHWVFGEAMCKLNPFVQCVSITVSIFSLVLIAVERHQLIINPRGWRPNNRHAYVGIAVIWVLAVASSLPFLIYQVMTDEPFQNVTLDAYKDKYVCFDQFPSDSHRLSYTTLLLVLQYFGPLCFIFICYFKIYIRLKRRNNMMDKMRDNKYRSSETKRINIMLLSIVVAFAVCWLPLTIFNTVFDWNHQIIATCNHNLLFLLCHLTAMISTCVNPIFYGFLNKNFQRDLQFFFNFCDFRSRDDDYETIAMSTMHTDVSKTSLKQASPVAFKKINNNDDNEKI
# Target: T1, Y1R L26^NA/F28^NA mutant (printed …)
# Assay: cell-based or functional assay
binder,measurement,value
neuropeptide Y (NPY) (C-terminal amide (amidated C-terminal residue Y36)) peptide: not shown,"NPY signalling, increase in EC50 against wild-type Y1R",2.8 fold
